Measurements as given in patent US5668265.

Biological target: alpha-thrombin (Homo sapiens) (UniProt P00734+P00734)
Test: SPR
Conditions: apparent
[1] = DNA segments joined 3'-3' by a single phosphodiester (inverted polarity; second segment given 5'-3'), solution competition vs immobilized consensus aptamer, same buffer, 25 C
[2] = DNA segments joined 3'-3' through glycerol phosphodiester linker L2 (both segments given 5'-3'), solution competition vs immobilized consensus …, same buffer, 25 C

**Q.** For “GGTTGGGGTTGG [Compound 11 (uni-directional)]”, which Kd (hexaethylene glycol phosphodiester linker L1 between 3' end of first and 5' end of second segment (normal polarity), solution competition vs immobilized consensus aptamer, same buffer, 25 C) is on record?
**A.** The Kd was 0.029 µM.

**Q.** Which Kd [1] does the source give for GGTTGGTGGGTTGGT [Compound 1] here?
**A.** Its Kd is 0.224 µM.

**Q.** How did the Kd (DNA segments joined 3'-3' through hexaethylene glycol phosphodiester linker L1 (both segments given 5'-3'), solution competition vs immobilized consensus aptamer, 80 nM thrombin, 20 mM Tris-acetate, 140 mM NaCl, 5 mM KCl, 1 mM CaCl2, 1 mM MgCl2, pH 7.4 …) turn out when GGTTGGTGGTTGGT [Compound 5] was run?
**A.** Its Kd is 0.009 µM.

**Q.** GGTTGGTGGTTGGT [Compound 8] was tested. Which Kd [2] did it give?
**A.** The Kd was 0.029 µM.

**Q.** For GGTTGGTTGGGTTGGTT [Compound 3], which Kd [1] is on record?
**A.** The Kd was 0.011 µM.

**Q.** GGTTGGTTGGTTGGTT [Compound 2] was tested. Which Kd [1] did it give?
**A.** Its Kd is 0.312 µM.

**Q.** GGTTGGTTGGTTGGTT [Compound 6] was tested. Which Kd (DNA segments joined 3'-3' through hexaethylene glycol phosphodiester linker L1 (both segments given 5'-3'), solution competition vs immobilized consensus aptamer, same buffer, 25 C) did it give?
**A.** The Kd was 0.01 µM.

**Q.** GGTTGGTTGGTTGGTT [Compound 9] was tested. Which Kd [2] did it give?
**A.** Its Kd is 0.019 µM.

**Q.** How did the Kd (DNA segments joined 5'-5' through hexaethylene glycol phosphodiester linker L1 (both segments given 5'-3'), solution competition vs immobilized consensus aptamer, same buffer, 25 C) turn out when TGGTTGGTGGTTGG [Compound 7] was run?
**A.** Its Kd is 0.023 µM.

**Q.** For TTGGTTGGTTGGTTGG [Compound 4], which Kd (DNA segments joined 5'-5' by a single phosphodiester (inverted polarity; both segments given 5'-3'), solution competition vs immobilized consensus aptamer, same buffer, 25 C) is on record?
**A.** The Kd was 0.025 µM.
